# Results taken from paper PMC8916002 (Proceedings of the National Academy of Sciences of the …, 2022).
# T1: JPH2 (1 to 161, 275 to 437) (human, UniProt Q9BR39-1 1-161; Q9BR39-1 275-437)
# T1 chain (looked up): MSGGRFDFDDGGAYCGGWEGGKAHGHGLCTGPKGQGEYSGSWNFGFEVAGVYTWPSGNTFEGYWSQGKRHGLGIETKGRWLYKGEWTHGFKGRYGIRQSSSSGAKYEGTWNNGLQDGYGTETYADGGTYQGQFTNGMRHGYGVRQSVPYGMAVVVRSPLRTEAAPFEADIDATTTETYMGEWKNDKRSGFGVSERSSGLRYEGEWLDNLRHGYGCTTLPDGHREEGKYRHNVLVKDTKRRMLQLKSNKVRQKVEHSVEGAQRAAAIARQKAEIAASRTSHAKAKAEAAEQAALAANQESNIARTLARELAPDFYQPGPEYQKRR
# T2: JPH1 (1 to 175, 265 to 442) (human, UniProt Q9HDC5 1-175; Q9HDC5 265-442)
# T2 chain (looked up): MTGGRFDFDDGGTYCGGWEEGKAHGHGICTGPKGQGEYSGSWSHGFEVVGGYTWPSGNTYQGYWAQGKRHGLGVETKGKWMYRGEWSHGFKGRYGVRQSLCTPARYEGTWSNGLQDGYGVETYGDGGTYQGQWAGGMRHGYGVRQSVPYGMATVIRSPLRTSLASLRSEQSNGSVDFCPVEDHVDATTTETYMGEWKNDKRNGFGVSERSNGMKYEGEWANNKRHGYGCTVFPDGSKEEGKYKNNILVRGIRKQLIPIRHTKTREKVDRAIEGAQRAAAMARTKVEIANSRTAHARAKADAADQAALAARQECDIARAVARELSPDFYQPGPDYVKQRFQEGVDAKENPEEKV
# T3: MBP-tagged JPH2 (1 to 161, 275 to 437) (human, UniProt Q9BR39-1 1-161; Q9BR39-1 275-437)
# T3 chain (looked up): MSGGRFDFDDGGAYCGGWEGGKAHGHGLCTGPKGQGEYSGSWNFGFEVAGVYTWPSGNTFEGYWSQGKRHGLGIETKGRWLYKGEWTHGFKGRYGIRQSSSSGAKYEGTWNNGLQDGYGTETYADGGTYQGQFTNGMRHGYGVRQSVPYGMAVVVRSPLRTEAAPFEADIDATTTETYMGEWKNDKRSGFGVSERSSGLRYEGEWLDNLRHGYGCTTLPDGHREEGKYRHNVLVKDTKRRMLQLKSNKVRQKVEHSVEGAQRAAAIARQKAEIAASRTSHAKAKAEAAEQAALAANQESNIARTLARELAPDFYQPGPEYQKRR
# B1: CaV1.1 peptide (rabbit CaV1.1 residues 1594 to 1609) (peptide, UniProt P07293 1594-1609, looked up)
# peptide: EERIFRRTGGLFGQVD
# Legend:
# [1] = system: JPH1; experiment: Cocrystallization of JPH1 with phospholipids; assay type: binding, human; settings: high ionic strength
# [2] = target: T1, JPH2 (1 to 161, 275 to 437); experiment: ITC
# [3] = target: T2, JPH1 (1 to 175, 265 to 442); experiment: ITC
# [4] = target: T3, MBP-tagged JPH2 (1 to 161, 275 to 437); experiment: ITC
molecule,measurement,setting,value
CCCCCC(=O)OC[C@H](COP(=O)(O)OC[C@H](N)C(=O)O)OC(=O)CCCCC [6:0 PS],ligand electron density in JPH1 crystals,"[1]; 2 mM 6:0 PS, diffraction data to 1.9 Å",no significant difference density could be identified
same,ligand electron density in JPH1 crystals,"[1]; 2 mM 6:0 PS, diffraction data to 1.9 Å, listed as PS",could not observe any density for a bound ligand
"CCCCCCCC(=O)OC[C@H](COP(=O)(O)O[C@@H]1[C@H](O)[C@H](O)[C@@H](OP(=O)(O)O)[C@H](OP(=O)(O)O)[C@H]1O)OC(=O)CCCCCCC [8:0 PI(4,5)P2]",ligand electron density in JPH1 crystals,"[1]; 500 μM 8:0 PI(4,5)P2, diffraction data to 2.0 Å",no significant difference density could be identified
B1,stoichiometry N,[2],1
same,Kd,[3],1000 to 2000 nM
same,stoichiometry N,[3],1
same,Kd,[4],1800 nM
